Experimental data from the supplement of paper PMC7877785.
± gives the uncertainty stated by the source.

Test: self-splicing fitness, log relative to wild type (ln ratio); higher = more splicing; Tetrahymena group I intron in knt gene, E. coli kanamycin selection, DiMSum; sequences stand for … in CUCUCU…GGAGGGAAAAGUUAUCAGGCAUGCACCUGGUAGCUAGUCUUUAAACCAAUAGAUUGCAUCGGUUUAAAAGGCAAGACCGUCAAAUUGCGGGAAAGGGGUCAACAGCCGUUCAGUACCAAGUCUCAGGGGAAACUUUGAGAUGGCCUUGCAAAGGGUAUGGUAAUAAGCUGACGGACAUGGUCCUAACCACGCAGCCAAGUCCUAAGUCAACAGAUCUUCUGUUGAUAUGGAUGCAGUUCACAGACUAAAUGUCGGUCGGGGAAGAUGUAUUCUUCUCAUAAGAUAUAGUCGGACCUCUCCUUAAUGGGAGCUAGCGGAUGAAGUGAUGCAACACUGGAGCCGCUGGGAACUAAUUUGUAUGCGAAAGUAUAUUGAUUAGUUUUGGAGUACUCGUGGUCG
Outline: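 DiMSum derived fitness as the error-weighted combination of fold changes across replicates, kanamycin versus no kanamycin, normalised to wild type. E. coli BL21(DE3) held the library, which randomised all eight P1ex-region intron nucleotides within the knt kanamycin-resistance gene on pET-22b(+). Six replicate transformations grew overnight at 37°C or 30°C on LB agar with or without 25 μg/mL kanamycin, also containing 100 μg/mL carbenicillin, 50 μM IPTG and 0.2% rhamnose, and pooled colonies were amplicon-sequenced on an Illumina HiSeq 2500.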

| Sequence | self-splicing fitness (ln) (30 °C) | self-splicing fitness (ln) (37 °C) |
| --- | --- | --- |
| GAAUAGCAAUAUUACGUUGU | -3.27 ± 0.14 | -2.38 ± 0.16 |
| GUAGAGCAAUAUUACGCUCG | -1.59 ± 0.13 | -0.12 ± 0.16 |
| AGGUAGCAAUAUUACGCUCU | -2.37 ± 0.024 | -1.45 ± 0.038 |
| CUUUAGCAAUAUUACGUGUU | -3.49 ± 0.18 | -3.77 ± 0.22 |
| UGGGAGCAAUAUUACGGCGU | – | -0.706 ± 0.28 |
| UGACAGCAAUAUUACGCAUU | -3.85 ± 0.18 | -2.4 ± 0.14 |
| UCAAAGCAAUAUUACGCCGC | -3.89 ± 0.39 | -1.67 ± 0.42 |
| CGUCAGCAAUAUUACGGCGA | -1.88 ± 0.17 | -1.57 ± 0.21 |
| GAUUAGCAAUAUUACGGGCU | -2.8 ± 0.15 | -1.28 ± 0.12 |
| CCCGAGCAAUAUUACGCACC | -3.46 ± 0.28 | -2.35 ± 0.4 |
| CAAAAGCAAUAUUACGGGUG | -0.689 ± 0.046 | -0.361 ± 0.076 |
| UGACAGCAAUAUUACGACGC | -1.83 ± 0.13 | -1.25 ± 0.19 |
| AAGGAGCAAUAUUACGCGAC | -2.44 ± 0.41 | -1.54 ± 0.35 |
| CUCGAGCAAUAUUACGGUUG | -3.73 ± 0.13 | -2.07 ± 0.13 |
| AUCUAGCAAUAUUACGUGAC | -3.35 ± 0.26 | -1.14 ± 0.2 |
| CGAAAGCAAUAUUACGUUCA | -0.312 ± 0.074 | 0.0231 ± 0.091 |
| AUGCAGCAAUAUUACGGAAU | -2.37 ± 0.088 | -0.752 ± 0.093 |
| AUUCAGCAAUAUUACGGCAG | -1.14 ± 0.11 | -0.688 ± 0.14 |
| GAUUAGCAAUAUUACGUGAA | -3.07 ± 0.17 | -1.48 ± 0.14 |
| GUGAAGCAAUAUUACGCGCA | -0.00454 ± 0.099 | 0.509 ± 0.13 |

| Sequence | self-splicing fitness (ln) (30 °C) | self-splicing fitness (ln) (37 °C) |
| --- | --- | --- |
| UGCAAGCAAUAUUACGCAGG | -4.36 ± 0.33 | -3.48 ± 0.37 |
| GAACAGCAAUAUUACGGGAU | -2.26 ± 0.084 | -1.05 ± 0.079 |
| ACCGAGCAAUAUUACGUUAG | -4.03 ± 0.15 | -2.65 ± 0.15 |
| GAUUAGCAAUAUUACGUGUA | -2.22 ± 0.13 | -1.63 ± 0.14 |
| CCUGAGCAAUAUUACGAAAU | -3.15 ± 0.29 | -0.975 ± 0.19 |
| GGUAAGCAAUAUUACGAAUU | -1.04 ± 0.11 | -0.205 ± 0.14 |
| UAAAAGCAAUAUUACGCCCC | -3.1 ± 0.49 | 0.13 ± 0.35 |
| GCUUAGCAAUAUUACGUUAG | -1.56 ± 0.13 | -1.1 ± 0.15 |
| UGCGAGCAAUAUUACGGUUC | -2.75 ± 0.28 | – |
| GAGAAGCAAUAUUACGGCUU | -3.58 ± 0.33 | -1.75 ± 0.24 |
| ACGGAGCAAUAUUACGGUAA | -2.95 ± 0.49 | -3.1 ± 0.28 |
| CAGAAGCAAUAUUACGUUUU | -3.33 ± 0.14 | -3.58 ± 0.19 |
| AAGAAGCAAUAUUACGUCGA | -0.754 ± 0.097 | 0.0801 ± 0.14 |
| GAGUAGCAAUAUUACGGUUU | -0.669 ± 0.092 | -0.275 ± 0.091 |
| UCGCAGCAAUAUUACGCUGU | -3.13 ± 0.14 | -3.02 ± 0.19 |
| CGCAAGCAAUAUUACGGACG | -1.45 ± 0.1 | -0.532 ± 0.11 |
| ACUCAGCAAUAUUACGUGGC | -3.04 ± 0.14 | -2.9 ± 0.17 |
| UGAUAGCAAUAUUACGGCCC | -2.82 ± 0.48 | -0.72 ± 0.42 |
| CUGUAGCAAUAUUACGCCAU | -3.3 ± 0.34 | – |
